{"source": "paper PMC9237115", "about": "(2022)", "binders": {"B1": {"name": "Hsp90 (HSP90AB1) (natural protein)", "chain": "not shown"}}, "key": {"[1]": {"biological_target": "T1, Full-length human Tau (MAPT) (human, UniProt P10636-8 1-441)", "T1 sequence (P10636 other isoform, or with tags, fused parts or gaps)": "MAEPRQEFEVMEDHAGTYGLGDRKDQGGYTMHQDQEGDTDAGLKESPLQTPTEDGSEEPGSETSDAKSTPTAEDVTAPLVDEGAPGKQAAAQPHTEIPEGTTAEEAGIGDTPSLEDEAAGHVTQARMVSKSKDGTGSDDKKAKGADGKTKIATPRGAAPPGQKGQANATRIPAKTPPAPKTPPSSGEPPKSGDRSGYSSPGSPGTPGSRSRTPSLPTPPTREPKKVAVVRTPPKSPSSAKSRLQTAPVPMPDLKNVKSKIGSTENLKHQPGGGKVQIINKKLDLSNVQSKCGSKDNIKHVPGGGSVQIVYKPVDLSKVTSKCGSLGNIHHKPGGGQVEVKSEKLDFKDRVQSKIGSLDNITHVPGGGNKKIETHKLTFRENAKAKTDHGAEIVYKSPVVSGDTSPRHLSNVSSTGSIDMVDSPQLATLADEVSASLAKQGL"}, "[2]": {"biological_target": "T1, Full-length human Tau (MAPT)", "assay": "previously reported (ref 2)"}, "[3]": {"biological_target": "Cdk2-phosphorylated Tau (PTau^Cdk2) (human, UniProt P10636-8 1-441, phosphorylated in vitro by Cdk2/CyA2, heterogeneously; LC-MS/MS confirmed phosphorylation of the AT8 (S202 and T205), AT180 (T231 and S235) and PHF1 (S396 and S404) epitopes; full list of sites in …)", "sequence (P10636 other isoform, or with tags, fused parts or gaps)": "as above", "assay": "Cdk2-phosphorylated Tau"}}, "note": "Where two headings read alike, the source gives them in different places."}
{"binder": "B1", "values": [{"measurement": "Kd", "setting": "[1]", "value": 4.1, "unit": "µM"}, {"measurement": "Kd", "setting": "[2]", "value": 4.8, "unit": "µM"}, {"measurement": "Kd", "setting": "[3]", "value": 27.9, "unit": "µM"}]}
